{
  "source": "patent US7470668B2",
  "about": "“Method of use of specific natriuretic peptide receptor c ligands, transgenic non-human mammals expressing specific natriuretic peptide receptor c antagonists and cells thereof” (Enobia Pharma Inc., priority 2005, dated 2008)",
  "molecules": {"B1": {"name": "rhOstn[27-133]: N-terminal 6 histidine-tagged recombinant human Ostn amino acids 27-133 produced in E.coli, SEQ ID NO: 57 (protein)", "chain": "SVDVTTTEAFDSGVIDVQSTPTVREEKSATDLTAKLLLLDELVSLENDVIETKKKRSFSGFGSPLDRLSAGSVDHKGKQRKVVDHPKRRFGIPMDRIGRNRLSNSRG", "modifications": "N-terminal His6 tag; recombinant mature osteocrin"}},
  "key": {"OVX rat": {"test_system": "OVX rat", "experiment": "Aged rat ovariectomy osteoporosis model, femoral BMD", "type": "in vivo", "conditions": "daily sub-cutaneous injections for 4 weeks, started 4 weeks post-OVX", "source_text": "The most widely used non-primate model for pre-clinical osteoporosis studies is the aged rat ovariectomy model (OVX rat). In this model, rapid trabecular bone loss occurs within the first month after ovariectomy (OVX) with an upregulation of both osteoblast and osteoclast activity resulting in increased bone turnover. However, similar to osteoporosis, the levels of osteoclast activity exceed those of osteoblast activity resulting in an imbalance in remodelling and consequently bone loss. […]\nThus, for the testing of potential therapeutic compounds in such a model one has two choices of approach. […] Efficacy can then be measured by assessing the ability of the compound to replace already lost bone. […]\nThe second approach was adopted to allow the Ostn's therapeutic potential through both anabolic and anti-resorptive efficacies to be assessed. […] Rats were left for a 4-week period following ovariectomy or sham-operation for bone loss to occur and at this point bone loss was assessed by X-ray and DEXA before proceeding with the experiment (groups 1+2). […]\nFIG. 10 represents the femoral BMD (i.e. The amount of mineralized bone tissue in a given area, usually calculated as grams per square centimeter) as measured by Piximus™ on excised femurs fixed in 70% ethanol. […]"}, "rat GC-A": {"target": "T1, rat GC-A (Rattus norvegicus, UniProt P18910)", "T1 construct": "expressed in transfected cells; host or cells: HEK293, transient, CMV-driven pBK plasmid (gift of Dr. A. De Léan)", "T1 sequence (P18910 29-1057)": "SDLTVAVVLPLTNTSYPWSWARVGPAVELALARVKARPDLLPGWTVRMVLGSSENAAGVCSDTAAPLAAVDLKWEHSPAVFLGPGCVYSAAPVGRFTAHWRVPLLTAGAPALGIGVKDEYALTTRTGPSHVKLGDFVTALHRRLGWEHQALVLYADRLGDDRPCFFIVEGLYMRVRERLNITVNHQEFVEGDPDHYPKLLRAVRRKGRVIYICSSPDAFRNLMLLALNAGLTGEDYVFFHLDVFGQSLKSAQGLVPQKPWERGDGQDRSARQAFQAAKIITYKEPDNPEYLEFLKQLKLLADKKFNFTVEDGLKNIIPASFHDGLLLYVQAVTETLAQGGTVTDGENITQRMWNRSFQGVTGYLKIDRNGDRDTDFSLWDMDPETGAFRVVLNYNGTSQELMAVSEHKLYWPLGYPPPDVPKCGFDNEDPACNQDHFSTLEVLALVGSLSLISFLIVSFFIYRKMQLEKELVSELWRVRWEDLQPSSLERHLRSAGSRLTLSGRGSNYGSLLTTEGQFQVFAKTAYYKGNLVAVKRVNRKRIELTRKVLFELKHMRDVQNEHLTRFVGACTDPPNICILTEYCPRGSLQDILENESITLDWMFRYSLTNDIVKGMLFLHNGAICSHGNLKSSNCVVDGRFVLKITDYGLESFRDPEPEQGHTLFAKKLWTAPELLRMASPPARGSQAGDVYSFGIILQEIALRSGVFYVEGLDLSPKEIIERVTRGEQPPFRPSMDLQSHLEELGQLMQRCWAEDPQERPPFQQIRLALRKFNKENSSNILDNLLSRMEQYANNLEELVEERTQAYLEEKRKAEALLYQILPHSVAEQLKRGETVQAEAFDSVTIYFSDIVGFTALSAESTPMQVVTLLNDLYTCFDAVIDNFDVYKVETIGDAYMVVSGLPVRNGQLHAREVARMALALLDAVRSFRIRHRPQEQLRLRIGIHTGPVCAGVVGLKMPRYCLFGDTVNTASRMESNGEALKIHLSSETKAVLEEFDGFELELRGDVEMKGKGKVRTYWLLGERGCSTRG", "experiment": "Intracellular cGMP in GC-A transfected HEK293 cells", "type": "cell-based", "conditions": "10 nM peptide, 15 min"}},
  "data": [
    {"molecule": "B1", "values": [
      {"measurement": "gain in femoral BMD over OVX-saline or OVX-mock treated rats", "setting": "OVX rat", "result": 6, "unit": "%"},
      {"measurement": "intracellular cGMP response via GC-A", "setting": "rat GC-A", "result": "failed to activate"}
    ]}
  ]
}
